We go through one molecule from patent publication US20190194358A1 (ARIZONA BOARD OF REGENTS A BODY CORPORATE OF THE STATE OF …, published 2019).

Ends that are not written are not given here.

One experiment has as its target T1, GRP58 (human, UniProt P30101 25-505, limits assumed).
T1 construct: GST fusion adsorbed on a nitrocellulose slide
T1 sequence (looked up): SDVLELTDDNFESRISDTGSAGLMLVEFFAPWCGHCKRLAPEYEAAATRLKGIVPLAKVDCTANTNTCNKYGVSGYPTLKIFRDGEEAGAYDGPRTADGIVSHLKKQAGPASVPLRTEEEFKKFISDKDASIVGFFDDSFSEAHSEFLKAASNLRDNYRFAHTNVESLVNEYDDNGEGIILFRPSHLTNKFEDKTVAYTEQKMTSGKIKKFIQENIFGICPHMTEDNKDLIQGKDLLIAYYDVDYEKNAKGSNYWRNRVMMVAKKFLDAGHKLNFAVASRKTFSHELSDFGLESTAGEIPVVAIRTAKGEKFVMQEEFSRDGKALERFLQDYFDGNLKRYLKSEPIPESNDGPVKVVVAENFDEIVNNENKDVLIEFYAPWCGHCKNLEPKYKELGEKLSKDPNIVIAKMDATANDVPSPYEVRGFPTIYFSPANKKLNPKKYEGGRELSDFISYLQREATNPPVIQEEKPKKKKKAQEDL
The experiment is described as follows: human protein microarray (Protoarray), fluorescence intensity.

A further experiment addresses T2, Fbox-21 (human, UniProt O94952 1-628).
T2 construct: GST fusion adsorbed on a nitrocellulose slide
T2 sequence (looked up): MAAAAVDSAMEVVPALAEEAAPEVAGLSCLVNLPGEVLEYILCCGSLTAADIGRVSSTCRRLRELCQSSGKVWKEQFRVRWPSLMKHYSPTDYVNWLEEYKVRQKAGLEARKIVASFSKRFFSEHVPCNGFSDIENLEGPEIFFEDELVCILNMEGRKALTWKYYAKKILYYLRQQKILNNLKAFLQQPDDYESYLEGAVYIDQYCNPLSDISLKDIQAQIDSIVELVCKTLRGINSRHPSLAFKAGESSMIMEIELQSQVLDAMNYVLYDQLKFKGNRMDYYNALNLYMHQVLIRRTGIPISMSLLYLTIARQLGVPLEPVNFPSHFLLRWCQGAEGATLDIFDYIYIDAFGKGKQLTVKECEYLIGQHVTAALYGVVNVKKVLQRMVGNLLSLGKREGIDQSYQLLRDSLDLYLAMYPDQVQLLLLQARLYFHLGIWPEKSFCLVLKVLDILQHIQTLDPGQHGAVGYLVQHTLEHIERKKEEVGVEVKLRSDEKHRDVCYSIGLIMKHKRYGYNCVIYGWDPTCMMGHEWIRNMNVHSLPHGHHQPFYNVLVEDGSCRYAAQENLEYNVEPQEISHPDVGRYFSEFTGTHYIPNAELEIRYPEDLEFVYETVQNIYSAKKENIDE
Described as above.

A further experiment concerns the target T3, ABHD14B (human, UniProt Q96IU4).
T3 construct: GST fusion on the array
T3 sequence (looked up): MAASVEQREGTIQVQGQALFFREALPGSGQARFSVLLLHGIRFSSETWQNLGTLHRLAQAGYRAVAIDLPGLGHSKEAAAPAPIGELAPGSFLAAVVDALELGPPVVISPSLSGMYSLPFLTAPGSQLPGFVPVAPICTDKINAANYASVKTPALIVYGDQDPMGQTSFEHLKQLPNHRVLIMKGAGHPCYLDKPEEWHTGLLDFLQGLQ
The experiment is described as follows: Invitrogen ProtoArray Human Protein Microarray v4.0; biotinylated synbody, fluorescently labelled streptavidin; fluorescence intensity above background.

The next experiment addresses T4, PRKAA1 (human, UniProt Q13131).
T4 construct: GST fusion on the array
The experiment is described as above.

The next experiment has as its target T5, LACRT (human, UniProt Q9GZZ8).
T5 construct: GST fusion on the array
T5 sequence (looked up): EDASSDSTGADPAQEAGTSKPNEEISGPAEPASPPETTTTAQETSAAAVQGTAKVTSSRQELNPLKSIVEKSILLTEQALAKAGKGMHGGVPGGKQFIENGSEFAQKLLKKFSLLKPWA
The description is as above.

T4 sequence (Q13131 whole entry, the tested form may be a part): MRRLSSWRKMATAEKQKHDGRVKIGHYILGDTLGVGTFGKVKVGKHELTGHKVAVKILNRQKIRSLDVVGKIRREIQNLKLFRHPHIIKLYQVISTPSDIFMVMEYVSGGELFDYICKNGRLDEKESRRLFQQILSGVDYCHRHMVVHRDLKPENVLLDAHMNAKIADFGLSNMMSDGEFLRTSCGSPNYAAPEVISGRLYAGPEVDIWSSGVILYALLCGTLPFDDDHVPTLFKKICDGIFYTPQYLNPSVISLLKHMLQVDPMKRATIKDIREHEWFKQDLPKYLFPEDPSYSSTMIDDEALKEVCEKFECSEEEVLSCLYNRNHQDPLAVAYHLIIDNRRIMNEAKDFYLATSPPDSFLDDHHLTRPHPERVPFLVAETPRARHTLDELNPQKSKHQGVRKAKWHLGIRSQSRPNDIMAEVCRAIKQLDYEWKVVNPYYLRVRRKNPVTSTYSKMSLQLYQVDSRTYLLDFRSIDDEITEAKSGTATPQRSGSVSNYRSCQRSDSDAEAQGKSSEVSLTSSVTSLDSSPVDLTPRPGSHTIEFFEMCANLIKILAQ
Experimental for ABHD14B: (§1) The prescribed cover slip was placed over the array and adjusted to remove air bubbles. The array was incubated in a 50 ml conical tube, printed side up, for 1.5 hours at 4 C without shaking. The array was then removed from the conical tube inserted diagonally into the array chamber, kept on ice. 8 ml probing buffer was added to the chamber wall. The cover slip was removed and the array was incubated in probing buffer for 1 minute on ice. The probing buffer was decanted and drained. Two further washings were performed adding 8 ml probing buffer, incubating on ice for 1 minute, and decanting and draining. 5 nM fluorescently labeled streptavidin diluted in 6 ml probing buffer was incubated on the array for 30 minutes on ice in the dark, after which the solution was decanted and drained. Three wash steps were performed, each by adding 8 ml probing buffer, incubating for 1 minute on ice, decanting, and draining. The array was removed from the chamber, centrifuged at 800×g for 5 minutes at room temperature. The array was dried in the dark for 60 minutes at room temperature, after which it was scanned using a fluorescent microarray scanner and data was taken and analyzed.
Experimental for Fbox-21: as §1
Experimental for GRP58: as §1
Experimental for LACRT: as §1
Experimental for PRKAA1: as §1

B1: SYN23-26 (designed binder)
peptide 1: AHKVVPQRQIRHAYNRYGSG
peptide 2: FRGWAHIFFGPHVIYRGGSG
modifications: also: two chains joined by their C-termini to a branching Lys (epsilon/alpha N), Lys linker followed by Cys, Cys thiol biotinylated
notes: Lysine linker followed by cysteine; the thiol of the cysteine biotinylated for the protein array; also called anti-TRF synbody
For B1, the binding result is listed as “binds” with GRP58; “binds” with Fbox-21; “no binding” with ABHD14B; “no binding” with PRKAA1; “no binding” with LACRT.
